B1: V226C, O00095 (parent)
chain: MKFLQVLPALIPAALAQTSCDQWATFTGNGYTVSNNLWGASAGSGFGCVTAVSLSGGASWHADWQWSGGQNNVKSYQNSQIAIPQKRTVNSISSMPTTASWSYSGSNIRANVAYDLFTAANPNHVTYSGDYELMIWLGKYGDIGPIGSSQGTVNVGGQSWTLYYGYNGAMQVYSFVAQTNTTNYSGDVKNFFNYLRDNKGYNAAGQYVLSYQFGTEPFTGSGTLNVASWTASIN
B2: C236S, Q8NJY3 (parent)
chain: MLKSALLLGAAAVSVQSASIPTIPANLEPRQIRSLCELYGYWSGNGYELLNNLWGKDTATSGWQCTYLDGTNNGGIQWSTAWEWQGAPDNVKSYPYVGKQIQRGRKISDINSMRTSVSWTYDRTDIRANVAYDVFTARDPDHPNWGGDYELMIWLARYGGIYPIGTFHSQVNLAGRTWDLWTGYNGNMRVYSFLPPSGDIRDFSCDIKDFFNYLERNHGYPAREQNLIVYQVGTECFTGGPARFTCRDFRADLW

Legend:
[1] = variants of: B1; conditions: Hypocrea jecorina; pH 8; Thermal; CD; Bis-Tris propane ammonium acetate 0.05 M 0.05 M; reversible: No; structure 1H8V; whole UniProt chain shown
[2] = variants of: B2; conditions: Trichocladium griseum; pH 8; Thermal; CD; Bis-Tris propane ammonium acetate 0.05 M 0.05 M; reversible: No; structure 1OLR; whole UniProt chain shown

Row | Variant | Tm [1] | change of melting temperature, mutant - wild type (higher = more stable) [1] | Tm [2] | change of melting temperature, mutant - wild type (higher = more stable) [2]
1 | MKFLQVLPALIPAALAQTSCDQWATFTGNGYTVSNNLWGASAGSGFGCVTAVSLSGGASWHADWQWSGGQNNVKSYQNSQIAIPQKRTVNSISSMPTTASWSYSGSNIRANVAYDLFTAANPNHVTYSGDYELMIWLGKYGDIGPIGSSQGTVNVGGQSWTLYYGYNGAMQVYSFVAQTNTTNYSGDVKNFFNYLRDNKGYNAAGQYVLSYQFGTEPFTGSGTLNCASWTASIN [V226C] | 54.5 °C | 0.1 °C |  | 
2 | MKFLQVLPALIPAALAQTSCDQWATFTGNGYTVSNNLWGASAGSGFGCVTAVSLSGGASWHADWQWSGGQNNVKSYQNSQIAIPQKRTVNSISSMPTTASWSYSGSNIRANVAYDLFTAANPNHVTYSGDYELMIWLGKYGDIGPIGSSQGTVNVGGQSWTLYYGYNGAMQVYSFVAQTNTTNYSCDVKNFFNYLRDNKGYNAAGQYVLSYQFGTEPFTGSGTLNVASWTASIN [G186C] | 56.5 °C | 2.1 °C |  | 
3 | MKFLQVLPALIPAALAQTSCDQWATFTGNGYTVSNNLWGASAGSGFGCVTAVSLSGGASWHADWQWSGGQNNVKSYQNSQIAIPQKRTVNSISSMPTTASWSYSGSNIRANVAYDLFTAANPNHVTYSGDYELMIWLGKYGDIGPIGSSQGTVNVGGQSWTLYYGYNGAMQVYSFVAQTNTTNYSCDVKNFFNYLRDNKGYNAAGQYVLSYQFGTECFTGSGTLNVASWTASIN [G186C P217C] | 55.1 °C | 0.7 °C |  | 
4 | MKFLQVLPALIPAALAQTSCDQWATFTGNGYTVSNNLWGASAGSGFGCVTAVSLSGGASWHADWQWSGGQNNVKSYQNSQIAIPQKRTVNSISSMPTTASWSYSGSNIRANVAYDLFTAANPNHVTYSGDYELMIWLGKYGDIGPIGSSQGTVNVGGQSWTLYYGYNGAMQVYSFVAQTNTTNYSGDVKNFFNYLRDNKGYNAAGQYVLSYQFGTECFTGSGTLNCASWTASIN [P217C V226C] | 55.1 °C | 0.7 °C |  | 
5 | MKFLQVLPALIPAALAQTSCDQWATFTGNGYTVSNNLWGASAGSGFGCVTAVSLSGGASWHADWQWSGGQNNVKSYQNSQIAIPQKRTVNSISSMPTTASWSYSGSNIRANVAYDLFTAANPNHVTYSGDYELMIWLGKYGDIGPIGSSQGTVNVGGQSWTLYYGYNGAMQVYSFVAQTNTTNYSGDVKNFFNYLRDNKGYNAAGQYVLSYQFGTECFTGSGTLNVASWTASIN [P217C] | 58.3 °C | 3.9 °C |  | 
6 | MKFLQVLPALIPAALAQTSCDQWATFTGNGYTVSNNLWGASAGSGFGCVTAVSLSGGASWHADWQWSGGQNNVKSYQNSQIAIPQKRTVNSISSMPTTASWSYSGSNIRANVAYDLFTAANPNHVTYSGDYELMIWLGKYGDIGPIGSSQGTVNVGGQSWTLYYGYNGAMQVYSFVAQTNTTNYSCDVKNFFNYLRDNKGYNAAGQYVLSYQFGTECFTGSGTLNCASWTASIN [P217C V226C G186C] | 54.5 °C | 0.1 °C |  | 
7 | MLKSALLLGAAAVSVQSASIPTIPANLEPRQIRSLCELYGYWSGNGYELLNNLWGKDTATSGWQCTYLDGTNNGGIQWSTAWEWQGAPDNVKSYPYVGKQIQRGRKISDINSMRTSVSWTYDRTDIRANVAYDVFTARDPDHPNWGGDYELMIWLARYGGIYPIGTFHSQVNLAGRTWDLWTGYNGNMRVYSFLPPSGDIRDFSCDIKDFFNYLERNHGYPAREQNLIVYQVGTESFTGGPARFTCRDFRADLW [C236S] |  |  | 63.3 °C | -5.4 °C
8 | MLKSALLLGAAAVSVQSASIPTIPANLEPRQIRSLCELYGYWSGNGYELLNNLWGKDTATSGWQCTYLDGTNNGGIQWSTAWEWQGAPDNVKSYPYVGKQIQRGRKISDINSMRTSVSWTYDRTDIRANVAYDVFTARDPDHPNWGGDYELMIWLARYGGIYPIGTFHSQVNLAGRTWDLWTGYNGNMRVYSFLPPSGDIRDFSCDIKDFFNYLERNHGYPAREQNLIVYQVGTEPFTGGPARFTCRDFRADLW [C236P] |  |  | 59.5 °C | -9.2 °C
9 | MLKSALLLGAAAVSVQSASIPTIPANLEPRQIRSLCELYGYWSGNGYELLNNLWGKDTATSGWQCTYLDGTNNGGIQWSTAWEWQGAPDNVKSYPYVGKQIQRGRKISDINSMRTSVSWTYDRTDIRANVAYDVFTARDPDHPNWGGDYELMIWLARYGGIYPIGTFHSQVNLAGRTWDLWTGYNGNMRVYSFLPPSGDIRDFSGDIKDFFNYLERNHGYPAREQNLIVYQVGTECFTGGPARFTCRDFRADLW [C205G] |  |  | 69.9 °C | 1.2 °C
10 | MLKSALLLGAAAVSVQSASIPTIPANLEPRQIRSLCELYGYWSGNGYELLNNLWGKDTATSGWQCTYLDGTNNGGIQWSTAWEWQGAPDNVKSYPYVGKQIQRGRKISDINSMRTSVSWTYDRTDIRANVAYDVFTARDPDHPNWGGDYELMIWLARYGGIYPIGTFHSQVNLAGRTWDLWTGYNGNMRVYSFLPPSGDIRDFSSDIKDFFNYLERNHGYPAREQNLIVYQVGTECFTGGPARFTCRDFRADLW [C205S] |  |  | 68.9 °C | 0.2 °C
11 | MLKSALLLGAAAVSVQSASIPTIPANLEPRQIRSLCELYGYWSGNGYELLNNLWGKDTATSGWQCTYLDGTNNGGIQWSTAWEWQGAPDNVKSYPYVGKQIQRGRKISDINSMRTSVSWTYDRTDIRANVAYDVFTARDPDHPNWGGDYELMIWLARYGGIYPIGTFHSQVNLAGRTWDLWTGYNGNMRVYSFLPPSGDIRDFSCDIKDFFNYLERNHGYPAREQNLIVYQVGTECFTGGPARFTVRDFRADLW [C246V] |  |  | 69.5 °C | 0.8 °C
12 | MLKSALLLGAAAVSVQSASIPTIPANLEPRQIRSLCELYGYWSGNGYELLNNLWGKDTATSGWQCTYLDGTNNGGIQWSTAWEWQGAPDNVKSYPYVGKQIQRGRKISDINSMRTSVSWTYDRTDIRANVAYDVFTARDPDHPNWGGDYELMIWLARYGGIYPIGTFHSQVNLAGRTWDLWTGYNGNMRVYSFLPPSGDIRDFSCDIKDFFNYLERNHGYPAREQNLIVYQVGTECFTGGPARFTSRDFRADLW [C246S] |  |  | 63.1 °C | -5.6 °C

From FireProtDB (doi:10.1110/ps.03220403)
